From patent US8461322B2, “Plant 1-deoxy-D-xylulose 5-phosphate reductoisomerase” (E I du Pont de Nemours and Company, priority 1998, dated 2013) come the findings set out here.

This assay can be described thus: Recombinant DXR activity, non-radioactive kinetic assay (oxidation of NADPH monitored at 340 nm). It is filed as biochemical. The conditions noted are these: Ni-Agarose purified His-tagged protein expressed in E. coli, 100 mM Hepes pH 7.5, 1 mM MnCl2, NADPH, 0.3 mM DXP, room temperature. As to the method: Recombinant His-tagged DXR proteins were purified from E. coli using Ni-Agarose. Recombinant DXR activity was measured using a non-radioactive kinetic assay (Kuzuyama et al. (1998) Tetrahedron Lett 39:7913-7916). The assay mixture contained the following: 100 mM Hepes (pH 7.5); 1 mM MnCl2; […] NADPH, DXR, and 0.3 mM 1-deoxy-D-xylulose […] (DXP). The final volume of the reaction mixture was 200 μl and the assay was initiated by adding the substrate. The assay was run at room temperature on a plate reader. The oxidation of NADPH was monitored at 340 nm. The DXR activity was determined from the slope of the kinetic curve.

B1: second truncated rice His-DXR (SEQ ID NO:31): rice DXR protein in which the first seventy-six amino acids have been removed and replaced with a twenty-one amino acid His-tag (protein)
chain: MGSSHHHHHHSSGLVPRGSHMKPISIVGSTGSIGTQTLDIVAENPDKFRVVALAAGSNVTLLADQVKTFKPKLVAVRNESLVDELKEALADCDWKPEIIPGEQGVIEVARHPDAVTVVTGIVGCAGLKPTVAAIEAGKDIALANKETLIAGGPFVLPLAQKHKVKILPADSEHSAIFQCIQGLPEGALRRIILTASGGAFRDWPVDKLKEVKVADALKHPNWNMGKKITVDSATLFNKGLEVIEAHYLFGAEYDDIEIVIHPQSIIHSMIETQDSSVLAQLGWPDMRIPTLYTMSWPDRIYCSEVTWPRLDLCKLGSLTFKAPDNVKYPSMDLAYAAGRAGGTMTGVLSAANEKAVELFIDEKIGYLDIFKVVELTCDAHRNELVTRPSLEEIIHYDLWAREYAASLQPSTGLSPVPV
modifications: His-tag; His-tagged truncated rice 1-deoxy-D-xylulose 5-phosphate reductoisomerase
Consider B1, for which the “DXR activity (oxidation of NADPH)” value was “no oxidation of NADPH was detected”.

B2: truncated rice His-DXR (SEQ ID NO:30): rice DXR protein in which the first fifty-one amino acids have been removed and replaced with a twenty amino acid His-tag (protein)
chain: MGSSHHHHHHSSGLVPRGSHMQQAPPPAWPGRAVVEPGRRSWDGPKPISIVGSTGSIGTQTLDIVAENPDKFRVVALAAGSNVTLLADQVKTFKPKLVAVRNESLVDELKEALADCDWKPEIIPGEQGVIEVARHPDAVTVVTGIVGCAGLKPTVAAIEAGKDIALANKETLIAGGPFVLPLAQKHKVKILPADSEHSAIFQCIQGLPEGALRRIILTASGGAFRDWPVDKLKEVKVADALKHPNWNMGKKITVDSATLFNKGLEVIEAHYLFGAEYDDIEIVIHPQSIIHSMIETQDSSVLAQLGWPDMRIPTLYTMSWPDRIYCSEVTWPRLDLCKLGSLTFKAPDNVKYPSMDLAYAAGRAGGTMTGVLSAANEKAVELFIDEKIGYLDIFKVVELTCDAHRNELVTRPSLEEIIHYDLWAREYAASLQPSTGLSPVPV
modifications: His-tag; His-tagged truncated rice 1-deoxy-D-xylulose 5-phosphate reductoisomerase
Turning to B2, the “DXR activity (oxidation of NADPH)” value was “no oxidation of NADPH was detected”.

B3: E. coli His-DXR: His-tagged E. coli 1-deoxy-D-xylulose 5-phosphate reductoisomerase (protein)
chain: MGSSHHHHHHSSGLVPRGSHMKQLTILGSTGSIGCSTLDVVRHNPEHFRVVALVAGKNVTRMVEQCLEFSPRYAVMDDEASAKLLKTMLQQQGSRTEVLSGQQAACDMAALEDVDQVMAAIVGAAGLLPTLAAIRAGKTILLANKESLVTCGRLFMDAVKQSKAQLLPVDSEHNAIFQSLPQPIQHNLGYADLEQNGVVSILLTGSGGPFRETPLRDLATMTPDQACRHPNWSMGRKISVDSATMMNKGLEYIEARWLFNASASQMEVLIHPQSVIHSMVRYQDGSVLAQLGEPDMRTPIAHTMAWPNRVNSGVKPLDFCKLSALTFAAPDYDRYPCLKLAMEAFEQGQAATTALNAANEITVAAFLAQQIRFTDIAALNLSVLEKMDMREPQCVDDVLSVDASAREVARKEVMRLAS
modifications: His tag; His-tagged E. coli 1-deoxy-D-xylulose 5-phosphate reductoisomerase
B3: the “DXR activity (oxidation of NADPH)” value is listed as “DXR activity was detected”.

B4: Synechocystis His-DXR: His-tagged Synechocystis 1-deoxy-D-xylulose 5-phosphate reductoisomerase (protein)
chain: MGSSHHHHHHSSGLVPRGSHMVKRISILGSTGSIGTQTLDIVTHHPDAFQVVGLAAGGNVALLAQQVAEFRPEIVAIRQAEKLEDLKAAVAELTDYQPMYVVGEEGVVEVARYGDAESVVTGIVGCAGLLPTMAAIAAGKDIALANKETLIAGAPVVLPLVEKMGVKLLPADSEHSAIFQCLQGVPEGGLRRIILTASGGAFRDLPVERLPFVTVQDALKHPNWSMGQKITIDSATLMNKGLEVIEAHYLFGLDYDHIDIVIHPQSIIHSLIEVQDTSVLAQLGWPDMRLPLLYALSWPERIYTDWEPLDLVKAGSLSFREPDHDKYPCMQLAYGAGRAGGAMPAVLNAANEQAVALFLQEKISFLDIPRLIEKTCDLYVGQNTASPDLETILAADQWARRTVLENSACVATRP
modifications: His-tag; His-tagged Synechocystis 1-deoxy-D-xylulose 5-phosphate reductoisomerase
With B4, the “DXR activity (oxidation of NADPH)” value is “DXR activity was detected”.
